Target: IL4Rα on TF1 cells (UniProt P24394)
Assay: cell-based or functional assay

IC50 (nM) Blocking IL4, TF-1 cell proliferation: 3.1 nM
IC50 (nM) Blocking IL13, TF-1 cell proliferation: 20.5 nM
Relative activity (blocking IL4, against Dupilumab): 1 fold
Relative activity (blocking IL13, against Dupilumab): 1 fold
B1: Dupilumab (antibody, INN chains, looked up, V domains shown)
VH: EVQLVESGGGLEQPGGSLRLSCAGSGFTFRDYAMTWVRQAPGKGLEWVSSISGSGGNTYYADSVKGRFTISRDNSKNTLYLQMNSLRAEDTAVYYCAKDRLSITIRPRYYGLDVWGQGTTVTVSS
VL: DIVMTQSPLSLPVTPGEPASISCRSSQSLLYSIGYNYLDWYLQKSGQSPQLLIYLGSNRASGVPDRFSGSGSGTDFTLKISRVEAEDVGFYYCMQALQTPYTFGQGTKLEIKR

Source: patent US20230242615A1
